The test system of the series is F1*sub RNA substrate (template-directed ligation). Nature of the series: fraction ligated after 30 min (ligated reads / total reads); higher = more ligase activity; sequences stand for … in GAGACCGCAACTGAAAAGTTGT…AGTTCTGCACGTAGAAGCAAAAGGC
To be noted: 42 °C. The procedure, abridged: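 Oligo-pool templates of ligase ribozyme variants were PCR-amplified, T7-transcribed and gel-purified. Ligated and unligated bands were gel-separated, reverse transcribed with barcoded primers, and MiSeq-sequenced; core bases were filtered at quality ≥20. Fraction ligated per variant was ligated reads over total reads.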
Sequence TATACTGTCTAAGACACTTTGGATGGGTTGA [3d781] displayed a fraction ligated of 0.651.

TATACTGTGTAAGACACTTTGGATGGGTTGA [3d780] yielded a fraction ligated of 0.8.

TATACTTCGTAAGACACTTTGGATGGGTTGA [3d778] yielded a fraction ligated of 0.724.

TATACTTGCGAAGACACTTTGGATGGGTTGA [3d814] registered a fraction ligated of 0.649.

TATACTTGCGTAAACACTTTGGATGGGTTGA [3d816] yielded a fraction ligated of 0.464.

For TATACTTGCGTAAGAACTTTGGATGGGTTGA [3d818], the fraction ligated worked out at 0.768.

TATACTTGCGTAAGACACTTGGATGGGTTGA [3d821] returned a fraction ligated of 0.485.

On to TATACTTGCGTAAGACACTTTGATGGGTTGA [3d822], for which the fraction ligated worked out at 0.285.

In the case of TATACTTGCGTAAGACACTTTGGAGGGTTGA [3d824], the fraction ligated was 0.0191.

As to TATACTTGCGTAAGACACTTTGGATGGGTTA [3d826], the fraction ligated turned out to be 0.0217.

In turn, TATACTTGCGTAAGACACTTTGGATGGGTTG [3d827] had a fraction ligated of 0.272.

The sequence TATACTTGCGTAAGACACTTTGGATGGGTTGA [2d73] displayed a fraction ligated of 0.703.

For the sequence TATACTTGCGTAAGACACTTTGGATGGTTGA [3d825], the fraction ligated was 0.0234.

For TATACTTGCGTAAGACACTTTGGTGGGTTGA [3d823], the fraction ligated amounted to 0.014.

Take TATACTTGCGTAAGACATTTGGATGGGTTGA [3d820]: the fraction ligated is 0.722.

TATACTTGCGTAAGACCTTTGGATGGGTTGA [3d819] registered a fraction ligated of 0.629.

TATACTTGCGTAAGCACTTTGGATGGGTTGA [3d817]: the fraction ligated amounted to 0.739.

Regarding TATACTTGCGTAGACACTTTGGATGGGTTGA [3d815], the fraction ligated was determined as 0.435.

On to TATACTTGCTAAGACACTTTGGATGGGTTGA [3d813], for which the fraction ligated is 0.669.

In the case of TATACTTGGTAAGACACTTTGGATGGGTTGA [3d812], the fraction ligated is 0.653.

As for TATACTTGTCAAGACACTTTGGATGGGTTGA [3d843], the fraction ligated was determined as 0.705.

As for TATACTTGTCGAAACACTTTGGATGGGTTGA [3d858], the fraction ligated was 0.756.

Sequence TATACTTGTCGAAGAACTTTGGATGGGTTGA [3d860] gave a fraction ligated of 0.748.

For TATACTTGTCGAAGACACTTGGATGGGTTGA [3d863], the fraction ligated turned out to be 0.743.

As for TATACTTGTCGAAGACACTTTGATGGGTTGA [3d864], the fraction ligated is 0.755.

For the sequence TATACTTGTCGAAGACACTTTGGAGGGTTGA [3d866], the fraction ligated was found to be 0.0186.

TATACTTGTCGAAGACACTTTGGATGGGTTA [3d868] gave a fraction ligated of 0.0412.

The sequence TATACTTGTCGAAGACACTTTGGATGGGTTG [3d869] showed a fraction ligated of 0.61.

Take TATACTTGTCGAAGACACTTTGGATGGGTTGA [2d76]: the fraction ligated is 0.761.

For the sequence TATACTTGTCGAAGACACTTTGGATGGTTGA [3d867], the fraction ligated is 0.0528.

TATACTTGTCGAAGACACTTTGGTGGGTTGA [3d865] had a fraction ligated of 0.0282.

Sequence TATACTTGTCGAAGACATTTGGATGGGTTGA [3d862] gave a fraction ligated of 0.762.

For the sequence TATACTTGTCGAAGACCTTTGGATGGGTTGA [3d861], the fraction ligated was found to be 0.478.

As to TATACTTGTCGAAGCACTTTGGATGGGTTGA [3d859], the fraction ligated was determined as 0.703.

As for TATACTTGTCGAGACACTTTGGATGGGTTGA [3d857], the fraction ligated was 0.704.

As to TATACTTGTCGTAAAACTTTGGATGGGTTGA [3d883], the fraction ligated is 0.799.

In turn, TATACTTGTCGTAAACACTTGGATGGGTTGA [3d886] came in with a fraction ligated of 0.227.

The sequence TATACTTGTCGTAAACACTTTGATGGGTTGA [3d887] displayed a fraction ligated of 0.182.

TATACTTGTCGTAAACACTTTGGAGGGTTGA [3d889] gave a fraction ligated of 0.0111.

TATACTTGTCGTAAACACTTTGGATGGGTTA [3d891] had a fraction ligated of 0.00216.

Regarding TATACTTGTCGTAAACACTTTGGATGGGTTG [3d892], the fraction ligated was determined as 0.0953.

For the sequence TATACTTGTCGTAAACACTTTGGATGGGTTGA [2d78], the fraction ligated was 0.493.

Consider TATACTTGTCGTAAACACTTTGGATGGTTGA [3d890], for which the fraction ligated turned out to be 0.0192.

Consider TATACTTGTCGTAAACACTTTGGTGGGTTGA [3d888], for which the fraction ligated came out at 0.019.

Take TATACTTGTCGTAAACATTTGGATGGGTTGA [3d885]: the fraction ligated amounted to 0.78.

In turn, TATACTTGTCGTAAACCTTTGGATGGGTTGA [3d884] showed a fraction ligated of 0.494.

On to TATACTTGTCGTAACACTTTGGATGGGTTGA [3d871], for which the fraction ligated is 0.27.

The sequence TATACTTGTCGTAAGAACTTGGATGGGTTGA [3d904] gave a fraction ligated of 0.717.

Turning to TATACTTGTCGTAAGAACTTTGATGGGTTGA [3d905], the fraction ligated was determined as 0.794.

TATACTTGTCGTAAGAACTTTGGAGGGTTGA [3d907] displayed a fraction ligated of 0.032.

TATACTTGTCGTAAGAACTTTGGATGGGTTA [3d909] had a fraction ligated of 0.0459.

TATACTTGTCGTAAGAACTTTGGATGGGTTG [3d910]: the fraction ligated turned out to be 0.724.

In turn, TATACTTGTCGTAAGAACTTTGGATGGGTTGA [2d80] showed a fraction ligated of 0.786.

With TATACTTGTCGTAAGAACTTTGGATGGTTGA [3d908], the fraction ligated is 0.0441.

For the sequence TATACTTGTCGTAAGAACTTTGGTGGGTTGA [3d906], the fraction ligated was 0.0323.

For the sequence TATACTTGTCGTAAGAATTTGGATGGGTTGA [3d903], the fraction ligated turned out to be 0.769.

Turning to TATACTTGTCGTAAGACACTGGATGGGTTGA [3d925], the fraction ligated was found to be 0.74.

Sequence TATACTTGTCGTAAGACACTTGATGGGTTGA [3d926] returned a fraction ligated of 0.765.

TATACTTGTCGTAAGACACTTGGAGGGTTGA [3d928] came in with a fraction ligated of 0.0325.

In turn, TATACTTGTCGTAAGACACTTGGATGGGTTA [3d930] came in with a fraction ligated of 0.0948.

Take TATACTTGTCGTAAGACACTTGGATGGGTTG [3d931]: the fraction ligated amounted to 0.756.

Take TATACTTGTCGTAAGACACTTGGATGGGTTGA [2d83]: the fraction ligated is 0.785.

In turn, TATACTTGTCGTAAGACACTTGGATGGTTGA [3d929] had a fraction ligated of 0.0929.

Sequence TATACTTGTCGTAAGACACTTGGTGGGTTGA [3d927] gave a fraction ligated of 0.049.

The sequence TATACTTGTCGTAAGACACTTTATGGGTTGA [3d932] showed a fraction ligated of 0.0481.

TATACTTGTCGTAAGACACTTTGAGGGTTGA [3d934]: the fraction ligated came out at 0.0304.

Take TATACTTGTCGTAAGACACTTTGATGGGTTA [3d936]: the fraction ligated was 0.0174.

Consider TATACTTGTCGTAAGACACTTTGATGGGTTG [3d937], for which the fraction ligated worked out at 0.537.

TATACTTGTCGTAAGACACTTTGATGGGTTGA [2d84]: the fraction ligated came to 0.794.

TATACTTGTCGTAAGACACTTTGATGGTTGA [3d935] had a fraction ligated of 0.0546.

Sequence TATACTTGTCGTAAGACACTTTGGAGGGTTA [3d943] returned a fraction ligated of 0.00392.

Turning to TATACTTGTCGTAAGACACTTTGGAGGGTTG [3d944], the fraction ligated worked out at 0.00819.

TATACTTGTCGTAAGACACTTTGGAGGGTTGA [2d86]: the fraction ligated came to 0.0419.

The record behind these values is the supplement of paper PMC6755084.
